Reference: patent CN114230662A (ANYUAN MEDICINE SCIENCE AND TECH SHANGHAI LIMITED COMPANY, dated 2022)

Assays:
[1] = molecular target: T1, human CD47 on cells (Raji-luc, CCRF-CEM, Jurkat, CHO/K1-hCD47) (human, UniProt Q08722 19-323); test: flow cytometry on CCRF-CEM cells
T1 construct: whole, on cells; also called 细胞表面的CD47

[2] = molecular target: T2, 人CD47抗原 (recombinant human CD47, 北京义翘神州生物技术有限公司, 货号12283-HCCH) (human, UniProt Q08722 19-139); test: blocking ELISA on coated human CD47 (2.0 μg/ml); competitor biotin-labelled human SIRPα (0.2 μg/ml)
T2 construct: The catalogue number is printed only in 6.1 and 6.2; the construct is not described; also called 重组人CD47; human CD47 antigen
T2 sequence (Q08722 19-139 limits assumed): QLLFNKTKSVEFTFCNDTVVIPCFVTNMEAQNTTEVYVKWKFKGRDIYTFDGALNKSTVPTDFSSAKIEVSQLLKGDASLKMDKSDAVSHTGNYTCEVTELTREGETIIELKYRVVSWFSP

[3] = molecular target: T2, 人CD47抗原 (recombinant human CD47, …); test: ELISA, coated human CD47 (0.2 μg/ml)
[4] = molecular target: T3, 重组人CD47蛋白(His-tag) (Acro Biosystems, 货号CD-H5227) (human, UniProt Q08722 19-139); test: Biacore T200 (called BLI in the filing), method as in example 2.5
T3 construct: Analyte (mobile phase) in the Biacore T200 measurements of 2.5 and 6.6; also called recombinant human CD47 protein (His-tag); not shown: His tag
T3 sequence (Q08722 19-139 limits assumed): as above

[5] = molecular target: T1, human CD47 on cells (Raji-luc, …); test: flow cytometry on CHO/K1-hCD47 cells
[6] = molecular target: T1, human CD47 on cells (Raji-luc, …); test: flow cytometry on Raji-luc and Jurkat cells; against control antibody AB12W2

T1 sequence (Q08722 19-323): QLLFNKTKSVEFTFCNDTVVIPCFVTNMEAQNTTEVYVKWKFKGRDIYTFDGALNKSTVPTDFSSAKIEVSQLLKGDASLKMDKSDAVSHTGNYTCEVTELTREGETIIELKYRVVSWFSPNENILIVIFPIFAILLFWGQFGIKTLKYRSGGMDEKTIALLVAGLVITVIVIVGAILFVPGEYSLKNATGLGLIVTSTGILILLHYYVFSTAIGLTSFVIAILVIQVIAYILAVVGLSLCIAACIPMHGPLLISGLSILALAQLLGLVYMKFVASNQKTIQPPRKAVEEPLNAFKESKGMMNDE

EC50 [1]	EC50 [2]	EC50 [3]	binding result [4]	EC50 [5]	EC50 lower than that of the control antibody AB12W2 [6]	Binder
			binds			AB12W4 (antibody, human IgG4 S228P, kappa, V domains shown, Humanized from Mo2A11971 by resurfacing) VH: QIQLVQSGAEVVKPGASVKISCKASGYTFTDYYINWVKQAPGQRLEWIGWIYPGSGNTKHNQKFQGKATLTVDTSSSTAYMELSSLRSEDTAVYFCARRGTYYYGSSSDGFPYWGQGTLVTVSS VL: QIVLTQSPATMSASPGERVTISCRASSSVYYMYWYQQKPGQSPRPWIYRTSNLATGVPARFSGSGSGTSYSLTISSMEPEDFATYYCQQYHSYPLTFGQGTKLEIKR
0.162 µg/mL				0.252 µg/mL		AB12W9 (antibody, Humanized from Mo2A21331 by resurfacing) heavy: EVKLVESGGGLVKPGGSLRLSCAASGFAFSTYDMSWVRQTPGKGLEWVASISTGGTYTYYPDSVKGRFTIFRDNARNTLYLQMNSLRAEDTALYYCARRPYYFDYWGQGTLLTVSSASTKGPSVFPLAPSSKSTSGGTAALGCLVKDYFPEPVTVSWNSGALTSGVHTFPAVLQSSGLYSLSSVVTVPSSSLGTQTYICNVNHKPSNTKVDKKVEPKSCDKTHTCPPCPAPELLGGPSVFLFPPKPKDQLMISRTPEVTCVVVDVSHEDPEVKFNWYVDGVEVHNAKTKPREEQYASTYRVVSVLTVLHQDWLNGKEYKCKVSNKALPAPIEKTISKAKGQPREPQVYTLPPSREEMTKNQVSLTCLVKGFYPSDIAVEWESNGQPENNYKTTPPVLDSDGSFFLYSKLTVDKSRWQQGNVFSCSVLHEALHNHYTQKSLSLSPGK light: DIKMTQSPSSKSASVGERVTITCQASQDINNYLSWFQQKPGKAPKTLIYRANRLMTGVPSRFSGSGSGQDFSLTISSLQPEDMGIYYCLQFDDFPLTFGQGTKLEIKRTVAAPSVFIFPPSDEQLKSGTASVVCLLNNFYPREAKVQWKVDNALQSGNSQESVTEQDSKDSTYSLSSTLTLSKADYEKHKVYACEVTHQGLSSPVTKSFNRGEC

The next lines start with the binder.

Binder	EC50 [1]	EC50 [2]	EC50 [3]	binding result [4]	EC50 [5]	EC50 lower than that of the control antibody AB12W2 [6]
AB12W2 (antibody, V domains shown, Humanized anti-human CD47 control antibody with the variable regions of Celgene's CC-90002 (per CN104271757B); it was detected with anti-human IgG; also called CC-90002 (source of the variable regions); 对照抗体AB12W2) VH: QMQLVQSGAEVKKTGSSVKVSCKASGFNIKDYYLHWVRQAPGQALEWMGWIDPDQGDTEYAQKFQDRVTITRDRSMSTAYMELSSLRSEDTAMYYCNAAYGSSSYPMDYWGQGTTVTV VL: NIQMTQSPSAMSASVGDRVTITCKASQDIHRYLSWFQQKPGKVPKHLIYRANRLVSGVPSRFSGSGSGTEFTLTISSLQPEDFATYYCLQYDEFPYTFGGGTKVEIK	0.157 µg/mL	1.02 µg/mL	0.0092 µg/mL			
AB12W3 (antibody, human IgG4 S228P, kappa, V domains shown, Humanized from Mo2A1621 by resurfacing; Expressed in CHO cells) VH: EVQLVQSGAEVVKPGATVKISCKASGYSFTDYFMTWMKQSPGKSLEWIGRINPYNGETFYNQKFQGKATLTVDKSSTTAHMELSSLRSEDSAVYYCGRGGTAGTDYWGQGTLLTVSS VL: DVLLTQSPLSLPVTLGQPASISCRSSQSVVRSNGNTYLEWYLQKPGQSPRLLINKVSRRFSGVPDRFSGSGSGSEFTLKISRVEAEDVGIYYCFQGSHVPYTFGQGTKLEIKR		1.17 µg/mL	0.0112 µg/mL		0.461 µg/mL	
AB12W6 (antibody, human IgG4 S228P, kappa, Humanized from Mo2A21331 by resurfacing) heavy: not shown light: DIKMTQSPSSKSASVGERVTITCQASQDINNYLSWFQQKPGKAPKTLIYRANRLMTGVPSRFSGSGSGQDFSLTISSLQPEDMGIYYCLQFDDFPLTFGQGTKLEIKRTVAAPSVFIFPPSDEQLKSGTASVVCLLNNFYPREAKVQWKVDNALQSGNSQESVTEQDSKDSTYSLSSTLTLSKADYEKHKVYACEVTHQGLSSPVTKSFNRGEC		1.29 µg/mL	0.0128 µg/mL		0.217 µg/mL	50%
